Data published in the RNAGym collection of RNA variant scans (doi:10.7554/elife.80360).

B1: Hairpin Ribozyme (parent)
chain: GUCCUCUUUCACGUGCGCGUGAAAGAGAGAAGUGAACCAGAGAAACACACGUUGUGGUAUAUUACCUGGUA

Variants of: B1
Test: self-cleavage, relative activity (ratio to wild type); higher = more cleavage; co-transcriptional

Variant | self-cleavage
G27A A36C | 0.253
G40U A59G | 0.115
C3G C4A | 0.185
U20C U67G | 0.336
U14A A26U | 0.503
A22C A28U | 0.504
C16A C46A | 0.197
C6A G68U | 0.181
A22U C46G | 0.166
C65A C66A | 0.15
A47G U60A | 0.139
U20G A71G | 0.971
U20G A71U | 0.605
U63A | 0.188
G29A A49G | 0.138
C10G A64U | 0.199
A23U G32A | 0.147
A24G A35C | 0.82
U20G A45U | 0.117
C6A U20A | 0.551
G32C A43C | 0.23

Variant | self-cleavage
C38G U58G | 0.175
A39G G56A | 0.147
C3G U14G | 0.145
U8C A71G | 0.974
G13C U20G | 0.531
U60G G68U | 0.296
C46A A59G | 0.107
G17U U20G | 0.642
U14C U53C | 0.675
C12G G32A | 0.143
C12G A45U | 0.116
G1U C37A | 0.158
G32U A61U | 0.109
C10A G57C | 0.174
U52C U63G | 0.341
U9C C66G | 0.202
U7G U8C | 0.656
C50G A64C | 0.201
C10G A23G | 0.419
C10U G15C | 0.825
C3A C18G | 0.602

Variant | self-cleavage
U7G G68C | 0.224
C48A C66A | 0.189
C37U A49G | 0.508
G17A C65U | 0.31
G1C A61C | 0.249
A47U C50G | 0.28
U14C C16G | 0.821
A36G U58C | 1
U9G G27A | 0.332
C16U G19U | 0.661
U20G C48G | 0.179
G13U G27C | 0.19
U33G G56U | 0.244
A64G G68A | 0.226
G17A G51A | 1.06
C4G C10G | 0.114
C10U U60A | 0.67
G25C A44G | 0.085
A11G U70C | 0.952
C50A U70A | 0.303
A41C G51C | 1.16

Variant | self-cleavage
C10A A44U | 0.139
A23C U53G | 0.562
C3U G32A | 0.08
C3A G51C | 0.615
C4A C66U | 0.136
A44U U60A | 0.239
G29C C38U | 0.145
G27C A36U | 0.128
C6G G51A | 0.682
G1A U20G | 0.188
U5G U58A | 0.272
G54U C66U | 0.211
U5G A61G | 0.0248
G15U C16G | 1.09
A24U A28G | 0.731
G13C C66U | 0.431
U5A A41G | 0.162
A28C G34U | 1.23
G27U U67C | 0.0907
G15A G42C | 0.294
C50G U63G | 0.0983
